The nature of this series: protein stability index of a GFP-peptide fusion (GPS, HEK-293T) (PSI 1-6); higher = more stable.
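Note: lentivirally expressed fusions sorted by FACS into six bins by GFP to DsRed ratio, PSI derived from sequencing read proportions per bin multiplied by bin number.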

As for IVGFGLYGSIHGPTDYQVNIQIIE, the protein stability index (parent: IOH21551_61, c terminus: a fixed tail appended) is 3.17.
For FPELGYSYGGGSASSQHSEGSRSS, the protein stability index (parent: IOH21682_93, c terminus: a fixed tail appended) stood at 3.14.
On to VYYIFERLCAPLFRNIKQEPFSAR, for which the protein stability index (parent: IOH22371_57, c terminus: a fixed tail appended) was 2.19.
In the case of KSAAMLAVFAVSAVVHEYALAVCL, the protein stability index (parent: IOH22371_75, c terminus: a fixed tail appended) came to 3.11.
For LTLKVLRSSSCGDTELLGQATLPV, the protein stability index (parent: IOH21460_59, c terminus: a fixed tail appended) was 2.3.
Consider YHEAPMTRKHYQVTGYGINGTGDS, for which, under “parent: IOH22744_72, c terminus: a fixed tail appended”, the protein stability index came out at 2.29.
As to AKAADSPTRNDLESGLGHFSLRVH, the protein stability index (parent: IOH21711_5, c terminus: a fixed tail appended) stood at 3.12.
For the protein PSRVHASEVESAVWYVKKFGRYLE, the protein stability index (parent: IOH22759_12, c terminus: a fixed tail appended) came out at 2.26.
Consider HHHHGRDFLLRAASFDVCESVDEA, for which, for the setting “parent: IOH23244_56, c terminus: a fixed tail appended”, the protein stability index was found to be 3.72.
FFIRTSDSFDKFDFCEPSFVTGNC [PCMTD2 WT]: the protein stability index (parent: IOH21782_22, c terminus: a fixed tail appended) stood at 2.15.
Regarding FDHLQNRLIATKNPEEIRGGGLLK, the protein stability index (parent: IOH22484_38, c terminus: a fixed tail appended) turned out to be 3.8.
As to RVFKARIYTNRYETNEEDKTLQEI, the protein stability index (parent: IOH22759_67, c terminus: a fixed tail appended) is 2.51.
Take VKYNSCADRPFSAPWWFWLSLTGV: the protein stability index (parent: IOH22744_36, c terminus: a fixed tail appended) worked out at 2.7.
For the protein SFMPLVIKVTSATSVNLGILTADL, the protein stability index (parent: IOH25755_47, c terminus: a fixed tail appended) was determined as 2.79.
Consider EPAGSLRELGVWRSLLRLRATRAG, for which the protein stability index (parent: IOH21460_10, c terminus: a fixed tail appended) was 2.6.
Take PSNRSFFSEIISSISDVKFSHSGR: the protein stability index (parent: IOH22211_46, c terminus: a fixed tail appended) came out at 2.33.
Turning to LARKGSLKNGSMGSPVNQQPKKNN [C9orf25 WT], the protein stability index (parent: IOH25834_6, c terminus: a fixed tail appended) was 4.65.
Consider RNTKRDVTLEASRENSKPRAILKP, for which the protein stability index (parent: IOH22211_62, c terminus: a fixed tail appended) was 4.59.
Regarding FVAFALCMFCLYSFMPLVIKVTSA, the protein stability index (parent: IOH25755_45, c terminus: a fixed tail appended) stood at 2.87.
For HPDPAPFCADNPSELPPPMERTGG, the protein stability index (parent: IOH21682_15, c terminus: a fixed tail appended) is 2.73.
In the case of DSCCPAGIFQAMCLLICAEMYQVS, the protein stability index (parent: IOH25836_81, c terminus: a fixed tail appended) worked out at 3.09.
For the protein STTEGIQLAKELGATYLELHSLDD, the protein stability index (parent: IOH25836_27, c terminus: a fixed tail appended) turned out to be 3.48.
In the case of NQEITKAFHVRRTNRVKECLAKGT, the protein stability index (parent: IOH23244_80, c terminus: a fixed tail appended) was 3.11.
For PSNGRIDIKQLIAKKIKLTAEAEE, the protein stability index (parent: IOH22371_7, c terminus: a fixed tail appended) came out at 3.15.
For the protein QLQSMPSRELASMNLDIVDLLKKA, where the note is “parent: IOH25836_87, c terminus: a fixed tail appended”, the protein stability index was found to be 3.28.
As for FVLGKGRGAAAAGGPQRIPAHRFV, under “parent: IOH21551_13, c terminus: a fixed tail appended”, the protein stability index worked out at 1.88.
Turning to HVGELIIWDALDWTMQAYERNFWD, the protein stability index (parent: IOH25728_41, c terminus: a fixed tail appended) was found to be 2.32.
In the case of DEIEFLKKLHEEELRDLQVSVESQ, the protein stability index (parent: IOH21924_38, c terminus: a fixed tail appended) came to 4.78.
With YNPHPGFPELGYSYGGGSASSQHS, the protein stability index (parent: IOH21682_92, c terminus: a fixed tail appended) turned out to be 2.58.
As for YGSIHGPTDYQVNIQIIEYEKKQT, where the note is “parent: IOH21551_62, c terminus: a fixed tail appended”, the protein stability index amounted to 2.54.
With VLRSRIRFIHLVTGCVLGSSGKVL, where the note is “parent: IOH22744_79, c terminus: a fixed tail appended”, the protein stability index is 2.76.
For VHTGCHKKLGPEARRPRTRWGKN, the protein stability index (parent: IOH21711_9, c terminus: native) came to 1.97.
As to FCADNPSELPPPMERTGGIGDSRP, for the setting “parent: IOH21682_16, c terminus: a fixed tail appended”, the protein stability index was 4.54.
Consider LLTITKAHSNAISNCCFTFSGHFL [WDR88 WT], for which, where the note is “parent: IOH21600_45, c terminus: a fixed tail appended”, the protein stability index was found to be 3.1.
With VRSRLEEAGIKVHDVRLNGSAAGH, the protein stability index (parent: IOH22484_10, c terminus: a fixed tail appended) came out at 2.22.
For the protein KVVEAHKIVLCAVSHVFMLLFNVK, the protein stability index (parent: IOH25836_45, c terminus: a fixed tail appended) is 2.49.
Turning to EGCGPPLRRWLRANLAASGGYAIA [TSPAN10 WT], the protein stability index (parent: IOH21852_47, c terminus: a fixed tail appended) worked out at 1.89.
As to QYLAERYKVNTPMLQSFINYCLLF, the protein stability index (parent: IOH25755_11, c terminus: a fixed tail appended) is 2.35.
Consider GVLILFLTFFAFLHCWLNAFAEML, for which the protein stability index (parent: IOH22371_63, c terminus: a fixed tail appended) was determined as 2.73.
On to LYTGELDENERDLMHIAHIAELLE, for which, for the setting “parent: IOH23244_73, c terminus: a fixed tail appended”, the protein stability index was determined as 2.54.
Consider FIGEESVAAGEKSILTDNPTWIID [IMPA1 WT], for which the protein stability index (parent: IOH21098_12, c terminus: a fixed tail appended) was 2.05.
SDVVDWLYHNVEGFTDRREARKYA: where the note is “parent: IOH21682_75, c terminus: a fixed tail appended”, the protein stability index amounted to 2.98.
As for VSHVFMLLFNVKSPTDIQDSSIIR, the protein stability index (parent: IOH25836_47, c terminus: a fixed tail appended) turned out to be 2.27.
For the protein RTFGPPPSLSPGAFSYSSSSRFSS, the protein stability index (parent: IOH21924_4, c terminus: a fixed tail appended) was found to be 3.3.
In the case of FEDEVKRLGWQQQAELQELEERLQ [KIAA0774 WT], the protein stability index (parent: IOH21722_11, c terminus: a fixed tail appended) was 4.08.
Take DWRKNIEEKSGMEGRKKMFESES [TNNI2 WT]: the protein stability index (parent: IOH23107_29, c terminus: native) worked out at 2.45.
VTEDLRLKDWEHSIALRNISLAKG [SCARA5 WT]: where the note is “parent: IOH23227_48, c terminus: a fixed tail appended”, the protein stability index was 3.31.
On to LRGGGQVLLGWTLHYFPFFLMGRV, for which the protein stability index (parent: IOH22744_107, c terminus: a fixed tail appended) was determined as 2.33.
Consider WTMQAYERNFWDPSPQLDTQQEIK, for which, under “parent: IOH25728_43, c terminus: a fixed tail appended”, the protein stability index came out at 2.62.
In the case of GGADIIVIKYNVNDKFSFHEVKDN, the protein stability index (parent: IOH25836_16, c terminus: a fixed tail appended) was 2.19.
On to RFQDLVLRMLEYEPAARISPLGAL [DYRK1B WT], for which the protein stability index (parent: IOH14793_68, c terminus: a fixed tail appended) came out at 2.31.
With TSAEIELPDVEPAAFLALLRFLYS, under “parent: IOH21551_20, c terminus: a fixed tail appended”, the protein stability index was 2.
Turning to YSSSKGSLRLCDMRAAALCDKHSK [PPP2R2C WT], the protein stability index (parent: IOH22415_38, c terminus: a fixed tail appended) amounted to 1.74.
